According to the DeepSol protein solubility set:

assay: soluble on expression in E. coli; label from the status in PepcDB or PDB records

Sequence	soluble on expression in E. coli
GSSHHHHHHSSGLVPRGSHMGSIIDAAAAAGPVVLMETAFRKAVESRQIPGAVIMARDASGNLNYTRCFGARTVRRDENNQLPPLQVDTPCRLASATKLLTTIMVLQCMERGLVDLDETVDRLLPDLSAMPVLEGFDDAGNARLRERRGKITLRHLLTHTSGLSYVFLHPLLREYMAQGYLQSAEKFGIQSRLAPPAVNDPGAEWIYGTNLDWAGKLVERATGLDLEQYLQENICAPLGITDMTFKLQQRPDMLARRADQTHRNSADGRLRYDDSVYFRADGEECFGGQGVFSSPGSYMKVLHSLLKRDGLLLQPQTVDLMFQPALEPRLEEQMNQHMDASPHINYGGPMPMVLRRSFGLGGIIALEDLDGENWRRKGSLTFGGGPNIVWQIDPKAGLCTLAFFQLEPWNDPVCRDLTRTFEHAIYAQYQQG	soluble
MGSPTAEELTGCLFFSPDDGRIWLNDQRMLLLHSSSFGTLRREIIERLGQEPARGMFTRAGYLSGARDARLIRERWPLADATSAFRAGTHLHTLEGMAKVESLHFKFDAESGFYEGEFLWHNSCEADEHLAACGTGQDPVCWTEIGYAIGFVSGLFGQMVIFREVECRGMGHASCRVIGKTAEQWGDVERDLSYLSVAKTVAPAHTPALANAHYDAGPPTGTDQPLIGASAAFNAATQALQRVAMTPATVLISGESGVGKEMFARQLHQLSRNREGPFVALNCAAIPDNLIEAELFGVERGAYTGATHSRPGRFERANGGTLFLDEITSLSLAGQSKLLRALQEREIERVGGGHGIKVNVRVVAATNVDLRKAVAEGDFREDLFYRLNVYPIALPPLRERRDDIPLLINAFLQRFCHEYGRTPAGLTMRALKTLLRYDFAGNVRELQNLIERGLIASDEGQAIDLVHIFRNESLPVDSYSLNHDGALSKAAPPIAHTAQGAALLDTLSQEKQAFSIEELEQQLIREALEKSAGNLAAASRLLGLSRAQFA	not soluble
MSEPSNLVSKFQKLRVEASKIQNEFKEKPSYTLFKETLDISEKLLEKQFEFNDEMKQIQQNVMSELKSVKKELKQATSIKDLLEILEIIQKIFKKQDEFQQVQENQNKSIENLNSELKTVKAELNETKKQQESQEKLIDNSDKNLKLILESILKFQKSQDQIMMKIMEGSAVQDVPLGTVELTKIDPFFEILVIWTESCGIFASENHWKLRVCGSDTIRHIKLRINSLAKVDISSFRMVLRGKLLEDHHSLAYYNIQEGALIWLYSHLKMSETSSLMSQFQKLRVETSKIYNEFTEMVKNETSDMKKQQETQILKEQDEFQDEIRQEFLKIQENENKLIEKLMSELKTLKTELNETKNQISDLHNATKQQESQAQSMNDLLTKNSNNNLKMMLKIQEGQDRIMMKIQEGAAVKDVPIESGELAKNDSMFKIFVSWSIPGGIFVSENRRKLPVYESNTIRQIKLRINSLKSQDQMKIQEGEFAKKIEESVAPVKTPLEAPIEDKKLDNKKPFFKITVHLHGGPNASVYGRKYNHLVFDAHTIRDLKVRIKALIMQSSPIKLRTELYRLFFVYTLLEDHQTIAYYKFKKAQHLT	soluble
VRDHLPPGLPPDPFADDPCDPSAALEAVEPGQPLDQQERMAVEADLADLAVYEALLAHKGIRGLVVCCDECQQDHYHDWDMLRSNLLQLLIDGTVRPHEPAYDPEPDSYVTWDYCRGYADASLNEAAPDADRFRRR	soluble
MIRLILILINILFCHYLYALDCQKRLFDISINEKLSIQESLDELAKYCSFSIIVKDKIAKEKLETLQNSVNIHQMSLDEIFNFFIKEHDLSYDFDGKILRISGINTKIFKISYITSIREGQSITKASVDAKPRQSEYSGSFDDAEDNMIKSMEKFDFWQNIEKEIIVLLKNSHEDYEAKTPIINPNAGLIIVTGTNSQLKSVKNYLQKLENRLKKQVIIDVSILAVSLNESHSSGINWQNFNIGLNSQVNNENSFIQFQNGQGFVKNLGLRANLNFDSIINFLSQNGKTSVLSNPKLMALNNQQAIISVGDTINYQVKESSKGTENGTTVSESYNNYSIFVGILLNILPEISDDGKIMLRINPSLSDFKYPEDNKRQKEPRTIAPDTIQKKLSSVVQVENNQTLILGGLISHDKSNEKNSINFLSKIPILGSLFKGEVLNSKATEIVFIITPSIVDSVNAPSLKDLGFKHYELEHHHHHH	not soluble
MIKLTEYIYLASEQPLSTGSITLNGLSKPTGNLLNKAFFFFINDFEGDPPGKFSYSNYLKTLNYQVCSMCSLPSDNQNIETPSAIALLGYIRNHFKNTCTTKLYILSALNGFENKPISKTVTRKLSDLSYKDLYYQEMKLLKIIR	not soluble
MGSRIMHVIIANGIAEKLSIHDKTSFLLGAVAPDAVHSKKEKGTSHFYAGTTKNYTRRIDYDSFFHKYESHINSPFILGYYTHLIADDNWLSGFFLPWLKNRIENDETIAPLYYNDFKLLNAKLLHHYDQEQQLFSLLNQEAHIVDIEEVSKENVLAFRKYLFEDMLYPKQYLHEDLQVFTFDQIVGYIETAIEKGVFFIKQLSNEKSTSKI	not soluble
MGSDKIHHHHHHMINIFKPRTLTFYLVKSMDVLELLSELVSFNTVNDPNKGIKPSKECPRFIKDQLDSWDIESEIIERSGYYAVYGEIGDGTPRLLFMAHFDVVPVNLEEWETDPFELTIKENKAYGRGSADDKGNVAAVMLALKELSKEEKLNGRVIFAFTGDEEIGGAMAMHIAEKLSKEGKVPKYMINADGIGMKPIIRRRKGFGVEIKVYPRKVKVKGRVREIEFEPKTPVVETRHAAYFLPGVDTHPMVALSHFLRNSNAVAISLDGAFIKGNVIPGKVKLKYVEPGEGEEVEGDLSLTALLKAIVPIVRAPIKAEKYSDYGVSITPNVYSFDGSHVLKVDVRAMSYSKDDIEKTLREVLNFNLPEAELIIKENEKAGYLFTSPDDELVRVTLRILKELGEDVEPIEGPGASDSRYFTPLGVKAIDIGPRGGNIHGPNEYVEVDSLRKMPEIYRRIALSLLL	not soluble
MKKSLVVCALSAAVLLSGCETVNTTSGGVVGVDRKQSMFSMVSSAEVNQSYAQSYQQTLGEASSQGVLDKTSANAKRLQVIANRLIAQAPTFRPDCAQWKWEVNLIKSDELNANCGPGGKIIFYSGLIEKLKLTDDEIAAVMGHEIAHALREHGREAMSKQYAVGAGKQIATLFGVPQETVALGDNGVNLLMTLPNSRENENEADLIGLELAARAGYNPNAAISLWNKMGQAAGGSAPPEFMSTHPASTSRIASLQAAIPKVMPLYQAAKKSLEHHHHHH	not soluble
MGSDKIHHHHHHMTIALTGGGTGGHLAIVRCLLESAIKKNIECVYIGSQNGQDKAWFENEVRFKEKFFLSSKGVVNQSKFDKISSLLHTLKLSKDCREIFKKYHIQAVFSVGGYSAAPASFAALFSHLPLFIHEQNSKSGSLNMLLKPFATKFFSAFEKEISPYPVADKFFDNARIRKELKNIIFLGGSQGAQFINELALNLAPKLQEQNIKIIHQCGKNDFEKCKKHYQSLNIQADIFDFSLNLEEKMKNADLAISRAGASTLFELCANTLPTIFIPYPYAAKNHQYFNAKFLQDQALCQIFMQNSINLDEFFKSILKLNLENISTRLQNITQKNGADMLIQKALFDNLTFIR	not soluble
MIDENLIKINLICESQDEVFHYLATLVVDNGYANNTESVVQALKLRESEGTTGMMEGFAIPHAKDKSIVKPSIAILKLKTGVEWHSMDGQLINNVIALFIPEKEAGTTHLKVLSQIARLLVNKTFKEKIKEADTILELKELLTEKLDLTS	not soluble
MAFEFKLPDIGEGIHEGEIVKWFVKPGDEVNEDDVLCEVQNDKAVVEIPSPVKGKVLEILVPEGTVATVGQTLITLDAPGYENMTFKGQEQEEAKKEEKTETVSKEEKVDAVAPNAPAAEAEAGPNRRVIAMPSVRKYAREKGVDIRLVQGTGKNGRVLKEDIDAFLAGGAKPAPAAAEEKAAPAAAKPATTEGEFPETREKMSGIRRAIAKAMVHSKHTAPHVTLMDEADVTKLVAHRKKFKAIAAEKGIKLTFLPYVVKALVSALREYPVLNTSIDDETEEIIQKHYYNIGIAADTDRGLLVPVIKHADRKPIFALAQEINELAEKARDGKLTPGEMKGASCTITNIGSAGGQWFTPVINHPEVAILGIGRIAEKPIVRDGEIVAAPMLALSLSFDHRMIDGATAQKALNHIKRLLSDPELLLMEA	soluble
MGSDKIHHHHHHMKPEIALNLWQLLWQEYSARVNHARTYQQMITTAGGTVANDHIAFRSLRLLVDSPQGEVNLGIDYLAQFAEALGYVAAGEYNFAQTHLYARYYRHPQQEEFNLPKLFISELIVDELPANIAQLISKTVSAIPHQLASPVTLLKKDAEIETIAKQLQQVFTRPWLPPRRSVVEEVNQVTQYGAWVLLHGYGVNHFTGYVNGQNTPEYPDIDTTASGLAHLGVPMKAEIEGNVACGLRQTATQAVTEMVTVLDDNSGVEIQIPWTYAYYEIAQRYPVEVEPGKQILFDAFLGSNAQQLFEMTRLSK	not soluble
HHHHHHSSGLVPRGSHMSCEELEIVWNNIKAEARTLADCEPMLASFYHATLLKHENLGSALSYMLANKLSSPIMPAIAIREVVEEAYAADPEMIASAACDIQAVRTRDPAVDKYSTPLLYLKGFHALQAYRIGHWLWNQGRRALAIFLQNQVSVTFQVDIHPAAKIGRGIMLDHATGIVVGETAVIENDVSILQSVTLGGTGKSGGDRHPKIREGVMIGAGAKILGNIEVGRGAKIGAGSVVLQPVPPHTTAAGVPARIVGKPDSDKPSMDMDQHFNGINHTFEYGDGI	soluble
MHTDINALFAALWQDYIQMTPSAAKVHELLGHGKPIINDHIALRTFNIAKVNLAVLAEHFTSLGYVACGDYKFEQKKLIAKHFEHPDATQPKVFISELLVEEFSSALQSTIQGLIAQVDEQATKADNFIYSGRHWTLDSKTYEALLEESEYAAWVAAFGYRANHFTVSINHLEGFDTLESVNDALKQAGFVLNTSGGEIKGSPEVLLEQSSTMADKIAVEFSDATVEIPSCFYEFALRYPKANGELYTGFVAASADKIFESTNAKKAAAALEHHHHHH	not soluble
MGSDKIHHHHHHMEFSPPLQRATLIQRYKRFLADVITPDGRELTLHCPNTGAMTGCATPGDTVWYSTSDNTKRKYPHTWELTQSQSGAFICVNTLWANRLTKEAILNESISELSGYSSLKSEVKYGSERSRIDFMLQADSRPDCYIEVKSVTLAENEQGYFPDAVTERGQKHLRELMSVAAEGQRAVIFFAVLHSAITRFSPARHIDEKYAQLLSEAQQRGVEILAYKAEISAEGMALKKSLPVTL	not soluble
MTFSKSTTDKPSYTYEELSVKNKAYVWHPFTQMKDYLEEDPVIIERGEGRKLYDVNGNEYWDGVSSIWLNVHGHQVPELDEAIREQLNKIAHSTMLGLANVPSILLAEKIIEVVPEGLKKVFYSDSGSSAVEIAIKMAFQYWQHKGKPKKQRFVTLKEAYHGDTIGAVSVGAIDLFYQVYSSLLFEAIKMPYPYTYRSPYGNDKAEIVKKHLEEMEELLKDKHEEIAAIIVEPLMQGAGGMITMPKGYLRGLRNLCTKYNVLFITDEVATGFGRTGKMFACEHENVTPDILTAGKGLTGGYLPVAITVTTDEIYNAFLGSYEEQKTFFHGHSYTGNPLGCAVAIANLELYEKTNLIEEVARKTEYVATQLEELFACKHVGDIRQCGLMVGIELVKNKETKEAFEWTERVGVQVCKRSRELGMILRPLGNTIVFMPPLASTIDEIDEMLRILYKAISDITEGE	not soluble
MEVIREQEFVNQYHYDARNLEWEEENGTPKTNFEVTFQLANRDEAAKVTSIVAVLQFVIVRDEFVISGVISQMAHIQGRLINEPSEFSQDEVENLAAPLLEIVKRLTYEVTEIALDRPGVTLEFNS	soluble
